Assay: yeast display, Sf9 membrane polyspecificity reagent, FACS + sequencing; frameworks hold sequencing errors
Procedure, shortened: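 Nanobodies came from a synthetic yeast display library in Saccharomyces cerevisiae BJ5465, induced with galactose for 36–48 hours and stained for 1 hour at 4 °C with 10% biotinylated, detergent-solubilized Sf9 membrane reagent. Cells were enriched on streptavidin microbeads and then FACS-sorted, with low and high (top ~1%) gates set on anti-HA fluorescence for expression and streptavidin fluorescence for reagent binding. Each polyreactivity label reflects the gate a clone came from. Genes were amplified by colony PCR, sequenced by MiSeq 2 × 250 and filtered by CDR length.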
In the case of “QDQLVESGGGLVQAGGSLSLSCAASGRIFYWYVIGWYRQAPGKEREYVASISWSGGSTYYADSVKGRFTISRDNAKNTVYLQMNSLKPEDTAVYYCNAGSVYTVSLTGHPYDYWGQGTQVTVSS”, the “polyreactivity (PSR sort gate)” value is reported as “low polyreactivity”.
With “QDQLVESGGGLVQAGGSLSLSCAASGRIYRYYAMGWSRQAPGKERELVADISSGDSTYYADSVKGRFTMSRDNAKNTVYLQMNSLKPEDTAVYNCNADVYSWVSGKEGDYWGQGTQVTVSS” the “polyreactivity (PSR sort gate)” value was “low polyreactivity”.
With “QDQLVESGGGLVQAGGTLRLSCAASGRTFYLYAMAWYRQAPGKERELVAAISSGASTYYADSVKGSFTISRDIAKNTVYLQMNSLKPDDTAVYYCAAEFCPQWSGYEYWGQGTLVTVSS” the “polyreactivity (PSR sort gate)” value was “high polyreactivity”.
For “QDQLVESGGGLVQAGRSLRLSCAASGRIIKLYAMGWYRQAPGKERELVAAISKSGGNTYADSVKGRFTISRDNAKNTVYLQMNSLKPEDTAVYYCAASVQSTSDPFDYWGQGTQVTVSS”, the “polyreactivity (PSR sort gate)” value was “low polyreactivity”.
In the case of “QDQLVESGGGLVQAGRSLRLSCAASGYTFRFNAMGWYRQAPGKEREFVAAIDFGGAGTYYADSVKGRFTISRDNAKNTVSLQMNSLKPEDTAVYYCNARDGVTTEFDYWGQGTQVNVSS”, the “polyreactivity (PSR sort gate)” value is reported as “low polyreactivity”.
With “QDQLVESGGGLVQAGVSLRLSCAASGSIIGSYAMGWYREAPAKERELVAAITRSGSRTYYADSVKGRFTISRDNAKNTVYLQINSLKPEDTAVYYCATGYPGGFDYWGLGTQVTVSS” the “polyreactivity (PSR sort gate)” value was “high polyreactivity”.
In the case of “QDQLVESGGGLVQARGSLRLSCAASGRIIKRYVMGWYRQAPGTERELVAAITSGGTNYADSVKGRFTISRDNAKNTVYLQMNSRKPEDTAVYSCAARYLYRAGSNYWGQGTQVTVSS”, the “polyreactivity (PSR sort gate)” value is reported as “high polyreactivity”.
For “QDQLVESGGGLVQARGSLRLSCASSGSICDHYVMGWYRQAPGKERELVAAITSGDRTNYADSVKGRFTISRDKAKNTVYLQMNSLTPEDTEGYYCNADYQSYFYYTTWYYDYDYWGKGTQVTVSS”, the “polyreactivity (PSR sort gate)” value was “low polyreactivity”.
For “QDQLVESGGGLVQAVGSLRLSCAASGSIFDVNALGWYRQAPGKERELVAAISQRGTRTYYADSVKGRFTISRDNAKNTVYLQMNSLKPEDTAVYYCNRGGWRQYDSWGQGTQVTVSS”, the “polyreactivity (PSR sort gate)” value was “high polyreactivity”.
For “QDQLVESGGRLVQAVGSLRLTCAASGRIFRGNGLGWYRQAPGKARELVASISSGGRTNYADSVKGRFTISRDNAKNTVYLQMNSLKPEDTAVYYCSATKSPSLYRWLYDYWGQGTQVTVSS”, the “polyreactivity (PSR sort gate)” value was “high polyreactivity”.
With “QDQLVESGRGLFQAGGSLRLSCAASGSTLWANAMGWYRQAPGKERELVAAISWRGGRTYYADSVKGRFTISRDNAKNTVYLQMNSLKPEVTAVYYCNAVSYYRPRTDYWGQGTLVTVSS” the “polyreactivity (PSR sort gate)” value was “high polyreactivity”.
With “QDQLVESGRGLVQAGGSLRLSCAASGFIFYQNAMGWYRQAPGKERELVAAISWRSGRTYYADSVKGRFTISRDNAKNTVYLQMNSLKPEDTAVYYCNAVRYPSYSPEYGSWGQGTEVTVSS” the “polyreactivity (PSR sort gate)” value was “high polyreactivity”.
With “QDQLVESGVGLVQAGGSLRLSCAASGIIIYRNTLGWYRQAPGKERELVAAIRRGGNTYYADSVKGRFTISRDNAKNTVYLQMNSLKPEDSAVYYCAASAGPRASYYYWGQGTQVTVSS” the “polyreactivity (PSR sort gate)” value was “high polyreactivity”.
In the case of “QDQLVESRGALVQAGGSLRLSCAASGIIFGRNAMGWYRQAPRKERELVAGITRRGARTYYADSVKGRFTISRDNAKNTVYFQMNILKPEDTAVYYCAAVGPYRWYDYWGQGTQVTVSS”, the “polyreactivity (PSR sort gate)” value is reported as “high polyreactivity”.
For “QDQLVESRGGEVQAGGSRRLRCAASGLTFLYNAMGWYRQAPGKERELVAAISQSAGSTYYADSVKGRFTISRDTAKNTVYLQLNSLKPEETAVYYFAADWDTPDLVIYDYWGQGTQVTLSS”, the “polyreactivity (PSR sort gate)” value was “low polyreactivity”.
For “QDQLVESRGGIVQAVRSLRLSSAASGSTYRNYAMGWYRQAPGKERELVAAISGSGGRTNYADSVKGRFTISRDNAKNTVYLQMNSLKQEDTAVYYCNARFPDWALSEISNSTTYGYWGQGTQVNVSS”, the “polyreactivity (PSR sort gate)” value was “low polyreactivity”.
In the case of “QDQLVESRGGLVQAGGSLRLSCAASGFTFGRYAMGWYRQAPGKERELVAVITSSGGRTYYADSVKGRFTISRDNAKNTVYLQMNSLKPEDTAVYYCHKYPLRLYGYDYWGQGTQVTVSS”, the “polyreactivity (PSR sort gate)” value is reported as “high polyreactivity”.
For “QDQLVESRGGLVQAGGSLRLSCAASGRIFLTNAMGWDRKAPGKERELVAAITSGGSTYYADSVKGRFTISRDNAKNTVFLQMNSVKPEDTAVYYCNADTDRYCPYEYDYWGQGTQVTVSS”, the “polyreactivity (PSR sort gate)” value was “low polyreactivity”.
For “QDQLVESVGGLDQAGGSLRLSCAASGFIFGANAIGWYRQATGKEREMVAAISSSGGRYELRRSVKGRFTISRDNAKNTVYLQMNSLKPEDTAVYYCATPYPTGRPRHYSWGQGTQVTVSS”, the “polyreactivity (PSR sort gate)” value was “high polyreactivity”.
In the case of “QDQLVESVGGLVQAGGSLRLSCAASGRTFGRYPMGSYIEAPGKEREMVAAIRSGGSTYYADSVKGRFTISRDNAKNTVYLLMNSLKPEDTAVYYCAADIDRHLTGFAYYRLDYWGQGTQVTVSS”, the “polyreactivity (PSR sort gate)” value is reported as “low polyreactivity”.
In the case of “QDQLVESVGGLVQAGVSLRLSCAASGSTLRKYAMGWYRQAPGKESELVAAISNSGGGTYYADSVKGRFTISRDNAKNTVYLQMNSLKPEDTAVYYCAARYGPSYGYGLYYPRRDYWGQGTQVTVSS”, the “polyreactivity (PSR sort gate)” value is reported as “high polyreactivity”.
With “QDQLVESWGGLVQAGGSLRLICAASGFIFRSYAMGWYRQAPGKERELVAAITYSGGRTYYADSVKGRFTISRDNAKNTVYLQMNSLKPEDTAVYYCAAETRVDFYWGQGTQVTVSS” the “polyreactivity (PSR sort gate)” value was “high polyreactivity”.
With “QDQLVESWGGLVQAGGSLRLSCAASGFTFRNNAMGWYRHAPWKERDLVASITARGGSTYYADTVKGRFTISRDNAINTVYVQLNILKTEDTAVYYSATDDYTWRRHPWYAGYDSWGQGTQVTVSS” the “polyreactivity (PSR sort gate)” value was “low polyreactivity”.
With “QDQLVETGGGLVQAGGSLRLSCAASGRIFAYNSMGWYRQAPGKERELVAAISWSGSSTYYADSVKGRFTISRDNAKNTVYLHMNCLKPEDTAVYYCAATPWYYYSTSYAYYYWGQGTQVTVSS” the “polyreactivity (PSR sort gate)” value was “high polyreactivity”.
For “QDQLVHSGGGLVQSGGSLRISCAASGFTFYLYGMGRYRQAPGKERDLDAAIDSTGSTNYADSVKGRFTISRDNAKNTVYLQMNSLKPEDTAVYYCAADFYLYYFRSPYDYWGQGTQVTVSS”, the “polyreactivity (PSR sort gate)” value was “high polyreactivity”.
With “QDQLVQSAGGLVQAGGSLRLSCAASGRTIRAYAMGWYRQAPGKEREFVAAITWGDGSTYYADSVNGRFTISRDNAKNTVYLQMKSLKPEDTAVYYCATVQSCRVRTYDYWGQGTQVSVSS” the “polyreactivity (PSR sort gate)” value was “high polyreactivity”.
In the case of “QDQLVQSGGGLVQAGGSLRLSCAASGFTFYYYAMGWYRQAPGKETELVAGISKSGGITYYADSVKGRFTISRDNAKNTVYLQMNSLKPEDTAVYYCAAAAWYQFFLYRYTYEYWGQGTQVTVSS”, the “polyreactivity (PSR sort gate)” value is reported as “low polyreactivity”.
With “QDQLVVSGGGLVQAGGSLRLSCAASGFIFYRYSMGWYSQEPGKEREVVASITRSGGSTYYAASVKGRFTISRDKAKNTLYLPMNSLKPVETAVYYCATAIRYFVSYDYWGQGTEVTVSS” the “polyreactivity (PSR sort gate)” value was “high polyreactivity”.
For “QDQRVDSGGGLVQAGGSLRLSCAASGSNFQWNAMGSYRHATGKERELVAAISGTGGNTYYADSVKGRFTISRDNAKNTVYLQMNSLKREDTAVYYCNTDYGEYYSWYLQWWYIPFDYWGQGTQVTVSS”, the “polyreactivity (PSR sort gate)” value was “low polyreactivity”.
In the case of “QDQRVESGGGLDQAGGSLRLSCAASGSIFLVYAMGWYRQAPGKEMEFVAAITWSGGSTYYADSVKGRFTISRDIAKNTVYLQMNSLKPEDTAVYYCAVEIWIPTWYGLSGEYDYWGHGTQVTVSS”, the “polyreactivity (PSR sort gate)” value is reported as “low polyreactivity”.
With “QDQRVESGGGLVQAGGSLRLSCAASVRTVNFNVMGWYSQARGKERELVAAISKSTGSTFYADSVKGRFTMSRDNAKNTGYLQKNSLKPEDTAVYYCIAVRCYGSGRGYGYCGQGTQVTVSS” the “polyreactivity (PSR sort gate)” value was “high polyreactivity”.
In the case of “QEQLLDSGGGLVQAGGSLRLSCAASGYFSSHILSWYRQGPGKVREFVDTITDGGTTDYADSVKGRFTISRDNAKNTVYLQMNSLNPQDTAVYYCAAVATYSYHFGYWGHGTQVTVSS”, the “polyreactivity (PSR sort gate)” value is reported as “high polyreactivity”.
For “QEQLLESGGALVQAGGSLRLSCMASGSILGDRMSWYRQAPGKEHELVATIYDGGITYYADSMKGRFTISRDNAKNTVYLQMNSLRPEDTAVYYCGASFEGYRYHVYCGQGTQVTVSS”, the “polyreactivity (PSR sort gate)” value was “low polyreactivity”.
In the case of “QEQLQESGGGLVQACGSLRLSCAASGYIFSHQYMGWYRQAPGKERELVASISPGATTNYADSVKGRFTISRDNAKNTVYLQMNSLKPEDTAVYYFAVYKILDRRLSYWGQGTQVTVSC”, the “polyreactivity (PSR sort gate)” value is reported as “high polyreactivity”.
In the case of “QEQLQESGGGLVQAGGSLRLSCAASGSISQAWYMGWYRQAPGKERELVAAINVGAITYYADSVKGRFSISRDNAKNTVYLPMNSLTPEDTGVYYCAVDQYSEAYYDYWGQGTQATVSS”, the “polyreactivity (PSR sort gate)” value is reported as “high polyreactivity”.
For “QEQLQESGGGLVQAGGSLRLSCAASGTISYAGPMGWYRQAPGKEREFVAGIGVGSNTNYADSVKGRYTIIRDNAKNTVYLQMNSLKPEDTAVYYCAVGGYAPLGRPYWGQGTQVTVSS”, the “polyreactivity (PSR sort gate)” value was “low polyreactivity”.
For “QEQLQESGGGLVQAGGSLYLSCAASGNIFEYYDMGWYRQGKERELVAGISYGTNTNYAVSVKGRFTISRDIAKNTVYLQMNSLKPEDTAVYYCARRIGHGSRPYWLETWLYPYDYWGQGTQVTVSS”, the “polyreactivity (PSR sort gate)” value was “low polyreactivity”.
For “QEQLQESGGGLVQAGGTLRLSCSASGTISPLPAMGWYRQSPGKEREFVAGIDTGAITNYADSVKGRFTISRDNAKNTVYLQMNSLKPEDTAVYYCAVFPAAYDYYERYYTYWGQGTQVTVCS”, the “polyreactivity (PSR sort gate)” value was “low polyreactivity”.
In the case of “QEQLQESGGGQVQAGGSLLLSCAASGNIIPSYYMGWYRQAPGKERELVAAITYGTSTNYADSVKGRFTISRDNAKNTVFLQMISLKPVDTAVYYCAVDFNYGDPLVHWGQGTQVTVSS”, the “polyreactivity (PSR sort gate)” value is reported as “high polyreactivity”.
With “QEQLQESGGGQVQAGGSLLLSCAASGNIIRYYYMGWYRQAPGKERELVAAITYGTSTNYADSVKGRFTISRDNAKNTVYLQMNSLKPEDTAVYYCAVVVNYGDPLDNWGQGTQVTVSS” the “polyreactivity (PSR sort gate)” value was “high polyreactivity”.
For “QEQLQETGGGLVQAGGSLRLICASSGSIFFVYGMGWSRQAPGKERELVAGINAGTNTNYADSVRGRFTISRDNAKYTVHLQMNSLKPEDTAVYYCAADGNGYQAHEYWGQGTQVTVSS”, the “polyreactivity (PSR sort gate)” value was “high polyreactivity”.
In the case of “QEQLVESGGGLVQAGGSLRLSCAASGNTFSYNAMGWYRQAPGKEREVVAAISSRGVRTYYADSVKGRFTISRDNAKNTVYLQMNSLKPEDTAVYYCAADLWDWAYDYWGQGTQVTVSS”, the “polyreactivity (PSR sort gate)” value is reported as “high polyreactivity”.
For “QEQQQESGGGQLQAGGSLLLSCAASGNIIRYYYMGWYRQAPGKERELVAAITYGTSTNYADSVKGRFTISRDNAKYSVYLQMISLKPEDTAVYYCAVDVNYGDPLDNWGQGTQVTVSS”, the “polyreactivity (PSR sort gate)” value was “high polyreactivity”.

From the nanobody polyreactivity screen of Harvey et al. (2022)
